Experimental data published in paper PMC6951436 (Cell reports, 2019).
Values joined by “and” are separate entries in the source; they are usually repeats but may differ in a detail not shown here. Equal entries are not always repeated.

B1: pyruvate kinase liver isoform phosphorylated at S12 (PKL pS12) (enzyme)
chain: not shown
modifications: phosphoserine at 12 (71.2% phosphorylated)
B2: pyruvate kinase liver isoform phosphorylated at S113 (PKL pS113) (enzyme)
chain: not shown
modifications: phosphoserine at 113 (82.8% phosphorylated)

Target: the molecule itself
Assay: native gel or EMSA + SEC

Protein | stoichiometry N
B1 | 4 and 2
B2 | 4 and 2
